This is an account of results in patent US20260242419A1, “A CYCLIC PEPTIDE FOR TRAPPING INTERLEUKIN-1 BETA” (Merck Sharp & Dohme LLC, priority 2023, published 2026).

First the molecules themselves.
B1: SEQ ID NO: 228 (peptide)
peptide: [Bip(4'-COOH)][4Pal][Phe(4-COOH)]G[Pro(cis-4-F)][Trp(βS-Me,4-F)][Aib]SW[d(αMeD)][ThrOMe]Q[Dap(CONH2)]G[dProc3CH24Pal]
modifications: lactam (positions not given here); also: macrolactam, ring places not given here
B2: SEQ ID NO: 239 (peptide)
peptide: [Bip(4'-COOH)][4Pal][Phe(4-COOH)]G[Pro(cis-4-F)][Trp(βS-Me,4-F)][Aib]SW[d(αMeD)][dCba]Q[Dab]G[dProc3CH24Pal]
modifications: lactam (positions not given here); also: macrolactam, ring places not given here
B3: SEQ ID NO: 235 (peptide)
peptide: [Bip(4'-COOH)][4Pal][Phe(4-COOH)]G[Pro(cis-4-F)][Trp(βS-Me,4-F)][Aib]SW[d(αMeD)][Ala(pyrimidin-5-yl)]Q[NMeDab]G[dProc3CH24Pal]
modifications: lactam (positions not given here); also: macrolactam, ring places not given here
B4: SEQ ID NO: 233 (peptide)
peptide: [Bip(4'-COOH)][4Pal][Phe(4-COOH)]G[Pro(cis-4-F)][Trp(βS-Me,4-F)][Aib]SW[Aib][dPyrimA]Q[Dab]G[dProc3CH24Pal]
modifications: lactam (positions not given here); also: macrolactam, ring places not given here
B5: SEQ ID NO: 230 (peptide)
peptide: [Bip(4'-COOH)][4Pal][Phe(4-COOH)]G[Pro(cis-4-F)][Trp(βS-Me,4-F)][Aib]SW[d(αMeD)][Ala(pyrimidin-5-yl)]Q[Dap(CONH2)]G[dProc3CH24Pal]
modifications: lactam (positions not given here); also: macrolactam, ring places not given here
B6: SEQ ID NO: 234 (peptide)
peptide: [Bip(4'-COOH)][4Pal][Phe(4-COOH)]G[Pro(cis-4-F)][Trp(βS-Me,4-F)][Aib]SW[Aib][dD]Q[Dab]G[dProc3CH24Pal]
modifications: lactam (positions not given here); also: macrolactam, ring places not given here
B7: SEQ ID NO: 236 (peptide)
peptide: [Bip(4'-COOH)][4Pal][Phe(4-COOH)]G[Pro(cis-4-F)][Trp(βS-Me,4-F)][Aib]SW[d(αMeD)][dPhe(4-F)]Q[Dab]G[dProc3CH24Pal]
modifications: lactam (positions not given here); also: macrolactam, ring places not given here
B8: SEQ ID NO: 231 (peptide)
peptide: [Bip(4'-COOH)][4Pal][Phe(4-COOH)]G[Pro(cis-4-F)][Trp(βS-Me,4-F)][Aib]SW[d(αMeD)][Nva]Q[Dab]G[dProc3CH24Pal]
modifications: lactam (positions not given here); also: macrolactam, ring places not given here
B9: SEQ ID NO: 229 (peptide)
peptide: [Bip(4'-COOH)][4Pal][Phe(4-COOH)]G[Pro(cis-4-F)][Trp(βS-Me,4-F)][Aib]SW[d(αMeD)][ThrOBn]Q[Dab]G[dProc3CH24Pal]
modifications: lactam (positions not given here); also: macrolactam, ring places not given here
B10: SEQ ID NO: 238 (peptide)
peptide: [Bip(4'-COOH)][4Pal][Phe(4-COOH)]G[Pro(cis-4-F)][Trp(βS-Me,4-F)][Aib]SW[d(αMeD)][dL]Q[Dab]G[dProc3CH24Pal]
modifications: lactam (positions not given here); also: macrolactam, ring places not given here
B11: SEQ ID NO: 237 (peptide)
peptide: [Bip(4'-COOH)][4Pal][Phe(4-COOH)]G[Pro(cis-4-F)][Trp(βS-Me,4-F)][Aib]SW[d(αMeD)][dCha]Q[Dab]G[dProc3CH24Pal]
modifications: lactam (positions not given here); also: macrolactam, ring places not given here
B12: SEQ ID NO: 232 (peptide)
peptide: [Bip(4'-COOH)][4Pal][Phe(4-COOH)]G[Pro(cis-4-F)][Trp(βS-Me,4-F)][Aib]SW[d(αMeD)][Nva(5,5,5-F3)]Q[Dab]G[dProc3CH24Pal]
modifications: lactam (positions not given here); also: macrolactam, ring places not given here

Starred links: 1 amine or outer side, 2 acyl side, 3 side chain; linkers in the order of their positions; H or OH if unused. Non-standard residues stand in square brackets, D forms with d. No end group written: not given here. dProc3CH24Pal = (2R,3S)-3-(4-pyridylmethyl)pyrrolidine-2-carboxylic acid, O=C([C@H]1[C@@H](Cc2ccncc2)CCN1[*:1])[*:2]; ThrOBn = (2S,3R)-2-amino-3-benzyloxy-butanoic acid, C[C@@H](OCc1ccccc1)[C@H](N[*:1])C(=O)[*:2]; dPyrimA = (2R)-2-amino-3-pyrimidin-5-yl-propanoic acid, O=C([C@@H](Cc1cncnc1)N[*:1])[*:2]; ThrOMe = (2S,3R)-2-amino-3-methoxy-butanoic acid, CO[C@H](C)[C@H](N[*:1])C(=O)[*:2]; dPro(4R-(4-pyridylmethyl)) = O=C(O)[C@H]1C[C@@H](Cc2ccncc2)CN1; Trp(βS-Me,4-F) = C[C@@H](c1c[nH]c2cccc(F)c12)[C@H](N)C(=O)O; Bip(4'-COOH) = N[C@@H](Cc1ccc(-c2ccc(C(=O)O)cc2)cc1)C(=O)O; Trp(4-Cl) = N[C@@H](Cc1c[nH]c2cccc(Cl)c12)C(=O)O; Ala(pyrimidin-5-yl) = N[C@@H](Cc1cncnc1)C(=O)O; Phe(4-COOH) = N[C@@H](Cc1ccc(C(=O)O)cc1)C(=O)O; Trp(4-F) = N[C@@H](Cc1c[nH]c2cccc(F)c12)C(=O)O; Bip = N[C@@H](Cc1ccc(-c2ccccc2)cc1)C(=O)O; Nva(5,5,5-F3) = N[C@@H](CCC(F)(F)F)C(=O)O; Pro(cis-4-F) = O=C(O)[C@@H]1C[C@H](F)CN1; dPhe(4-F) = N[C@H](Cc1ccc(F)cc1)C(=O)O; Dap(CONH2) = NC(=O)NC[C@H](N)C(=O)O; d(αMeD) = C[C@@](N)(CC(=O)O)C(=O)O; 4Pal = N[C@@H](Cc1ccncc1)C(=O)O; d3Pal = N[C@H](Cc1cccnc1)C(=O)O; dCha = N[C@H](CC1CCCCC1)C(=O)O; NMeDab = CN[C@@H](CCN)C(=O)O; dCba = N[C@H](CC1CCC1)C(=O)O; dOrn = NCCC[C@@H](N)C(=O)O; dDab = NCC[C@@H](N)C(=O)O; dDap = NC[C@@H](N)C(=O)O; Dab = NCC[C@H](N)C(=O)O; Nva = CCC[C@H](N)C(=O)O; Aib = CC(C)(N)C(=O)O

In one experiment the target is Recombinant human IL-1β (BioLegend 579404) (human, UniProt P01584 117-269). The experiment in a line: cell-based or functional assay.
Take B1: the “MRC5 IC50” value is 0.021 nM. B2: the “MRC5 IC50” value turned out to be 0.02 nM. With B3, the “MRC5 IC50” value came out at 0.018 nM. B4: the “MRC5 IC50” value is 0.03 nM. Consider B5, for which the “MRC5 IC50” value amounted to 0.022 nM.

For the molecule B6, the “MRC5 IC50” value was 0.024 nM. Take B7: the “MRC5 IC50” value worked out at 0.021 nM. As to B8, the “MRC5 IC50” value was found to be 0.027 nM. Consider cyclo([Bip(4'-COOH)][4Pal][Phe(4-COOH)]G[Pro(cis-4-F)][Trp(βS-Me,4-F)][Aib]SW[d(αMeD)][d3Pal]Q[Dab]G[dProc3CH24Pal]) (ring closure inferred) [SEQ ID NO: 240], for which the “MRC5 IC50” value is 0.025 nM. On the same count and under the same terms, in the case of B9 it was 0.023 nM. For cyclo([Bip(4'-COOH)][4Pal][Phe(4-COOH)]G[Pro(cis-4-F)][Trp(βS-Me,4-F)][Aib]SW[Aib][Ala(pyrimidin-5-yl)]Q[NMeDab]G[dProc3CH24Pal]) (ring closure inferred) [SEQ ID NO: 241], the “MRC5 IC50” value worked out at 0.018 nM.

B10: the “MRC5 IC50” value worked out at 0.024 nM. Still for that read-out and setting: in the case of B11 it was 0.025 nM; in that of B12, 0.022 nM.

The next experiment shares this target. The experiment is described as follows: cell-based or functional assay. This is another data set of the same source.
cyclo([Bip][4Pal][Phe(4-COOH)]G[Pro(cis-4-F)][Trp(βS-Me,4-F)][Aib]SW[d(αMeD)][dK]Q[Dap(CONH2)]G[dPro(4R-(4-pyridylmethyl))]) (ring closure inferred) [SEQ ID NO 244]: the “MRC5 IC50” value worked out at 0.03 nM.

Regarding cyclo([Bip(4'-COOH)][4Pal][Phe(4-COOH)]G[Pro(cis-4-F)][Trp(βS-Me,4-F)][Aib]SW[d(αMeD)][dS]Q[Dab]G[dPro(4R-(4-pyridylmethyl))]) (ring closure inferred) [SEQ ID NO 242], the “MRC5 IC50” value was 0.019 nM. Same read-out and setting: the result for cyclo([Bip][4Pal][Phe(4-COOH)]G[Pro(cis-4-F)][Trp(βS-Me,4-F)][Aib]SW[Aib][dE]Q[Dab]G[dPro(4R-(4-pyridylmethyl))]) (ring closure inferred) [SEQ ID NO 250] reads 0.027 nM; that for cyclo([Bip(4'-COOH)][4Pal][Phe(4-COOH)]G[Pro(cis-4-F)][Trp(βS-Me,4-F)][Aib]SW[d(αMeD)][dF]Q[Dab]G[dPro(4R-(4-pyridylmethyl))]) (ring closure inferred) [SEQ ID NO 243], 0.022 nM; that for cyclo([Bip][4Pal][Phe(4-COOH)]G[Pro(cis-4-F)][Trp(βS-Me,4-F)][Aib]SW[d(αMeD)][dDab]Q[Dab]G[dPro(4R-(4-pyridylmethyl))]) (ring closure inferred) [SEQ ID NO 248], 0.028 nM. The same measure, in the same setting: the result for cyclo([Bip][4Pal][Phe(4-COOH)]G[Pro(cis-4-F)][Trp(βS-Me,4-F)][Aib]SW[d(αMeD)][dDab]Q[Dap(CONH2)]G[dPro(4R-(4-pyridylmethyl))]) (ring closure inferred) [SEQ ID NO 247] reads 0.03 nM; that for cyclo([Bip(4'-COOH)][4Pal][Phe(4-COOH)]G[Pro(cis-4-F)][Trp(βS-Me,4-F)][Aib]S[Trp(4-F)][d(αMeD)][Ala(pyrimidin-5-yl)]Q[Dab]G[dPro(4R-(4-pyridylmethyl))]) (ring closure inferred) [SEQ ID NO 252], 0.013 nM.

Regarding cyclo([Bip][4Pal][Phe(4-COOH)]G[Pro(cis-4-F)][Trp(βS-Me,4-F)][Aib]SW[d(αMeD)][dOrn]Q[Dap(CONH2)]G[dPro(4R-(4-pyridylmethyl))]) (ring closure inferred) [SEQ ID NO 245], the “MRC5 IC50” value was 0.027 nM.

For the molecule cyclo([Bip][4Pal][Phe(4-COOH)]G[Pro(cis-4-F)][Trp(βS-Me,4-F)][Aib]SW[d(αMeD)][dE]Q[Dab]G[dPro(4R-(4-pyridylmethyl))]) (ring closure inferred) [SEQ ID NO 249], the “MRC5 IC50” value stood at 0.016 nM. As to cyclo([Bip(4'-COOH)][4Pal][Phe(4-COOH)]G[Pro(cis-4-F)][Trp(βS-Me,4-F)][Aib]S[Trp(4-Cl)][d(αMeD)][Ala(pyrimidin-5-yl)]Q[Dab]G[dPro(4R-(4-pyridylmethyl))]) (ring closure inferred) [SEQ ID NO 251], the “MRC5 IC50” value is 0.013 nM. Turning to cyclo([Bip][4Pal][Phe(4-COOH)]G[Pro(cis-4-F)][Trp(βS-Me,4-F)][Aib]SW[d(αMeD)][dDap]Q[Dap(CONH2)]G[dPro(4R-(4-pyridylmethyl))]) (ring closure inferred) [SEQ ID NO 246], the “MRC5 IC50” value is 0.031 nM.

In the case of cyclo([Bip(4'-COOH)][4Pal][Phe(4-COOH)]G[Pro(cis-4-F)][Trp(βS-Me,4-F)][Aib]SW[d(αMeD)][Nva]Q[Dab]G[dPro(4R-(4-pyridylmethyl))]) (ring closure inferred) [SEQ ID NO 253], the “MRC5 IC50” value was determined as 0.013 nM.
